Results published in article PMC8459632.

Target: SpyCatcher‐mi3 fusion protein
Test: SDS-PAGE of the covalent conjugate

With “2019‐nCoV RBD‐SpyTag (from UniProt P0DTC2 319-541) (domain or fragment)” the stoichiometry N (RBD monomers per particle) was 30.
